Experimental findings from the supplement of paper PMC10567573 are described below.

The chains are these.
B1: ZNF232 (parent)
chain: HSGEKPFICKECGKAYGWCSELIR
B2: FCHO1 (parent)
chain: HLELTRKLQDLIKDVLRYGEEQLK
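Also: lentivirally expressed fusions sorted by FACS into six bins by GFP to DsRed ratio, PSI derived from sequencing read proportions per bin multiplied by bin number.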

Variants of B1 are the subject of one series. As to the kind of experiment: protein stability index of a GFP-peptide fusion (GPS, HEK-293T) (PSI 1-6); higher = more stable. The note with it: c terminus: a fixed tail appended.
HSGEKPFICKECGKAYGWCSEMIR [L22M]: the protein stability index was 2.08.

Take HSGEKPFICKECGKAYLWCSELIR [G17L]: the protein stability index came out at 1.82.

As for HSGEKPFICKECGKAYEWCSELIR [G17E], the protein stability index was determined as 1.82.

Turning to HSGEKPFICKECGKAYHWCSELIR [G17H], the protein stability index came to 2.09.

Regarding HSGEKPFICKECGKAYDWCSELIR [G17D], the protein stability index amounted to 2.2.

As to HSGEKPFICKECGKAYVWCSELIR [G17V], the protein stability index worked out at 1.52.

Take HSGEKPFICKECGKAYYWCSELIR [G17Y]: the protein stability index was found to be 2.24.

As for HSGEKPFICKECGKAYAWCSELIR [G17A], the protein stability index amounted to 1.84.

Turning to HSGEKPFICKECGKAYRWCSELIR [G17R], the protein stability index is 1.65.

In the case of HSGEKPFICKECGKAYTWCSELIR [G17T], the protein stability index amounted to 1.56.

In the case of HSGEKPFICKECGKAYFWCSELIR [G17F], the protein stability index worked out at 1.97.

Turning to HSGEKPFICKECGKAYQWCSELIR [G17Q], the protein stability index came out at 2.2.

Regarding HSGEKPFICKECGKAYKWCSELIR [G17K], the protein stability index came out at 1.6.

For HSGEKPFICKECGKAYIWCSELIR [G17I], the protein stability index was 2.51.

With HSGEKPFICKECGKAYCWCSELIR [G17C], the protein stability index stood at 3.39.

In the case of HSGEKPFICKECGKAYPWCSELIR [G17P], the protein stability index stood at 2.54.

Regarding HSGEKPFICKECGKAYMWCSELIR [G17M], the protein stability index was 2.2.

With HSGEKPFICKECGKAYWWCSELIR [G17W], the protein stability index worked out at 2.2.

On to HSGEKPFICKECGKAYSWCSELIR [G17S], for which the protein stability index was 1.8.

In the case of HSGEKPFICKECGKAYNWCSELIR [G17N], the protein stability index turned out to be 1.38.

In the case of HSGEKPFICKECGKALGWCSELIR [Y16L], the protein stability index came out at 1.25.

As to HSGEKPFICKECGKAWGWCSELIR [Y16W], the protein stability index came out at 2.1.

On to HSGEKPFICKECGKAPGWCSELIR [Y16P], for which the protein stability index came out at 1.61.

As to HSGEKPFICKECGKASGWCSELIR [Y16S], the protein stability index was 1.99.

For the variant HSGEKPFICKECGKAKGWCSELIR [Y16K], the protein stability index was 2.11.

In the case of HSGEKPFICKECGKANGWCSELIR [Y16N], the protein stability index was 1.88.

With HSGEKPFICKECGKARGWCSELIR [Y16R], the protein stability index amounted to 2.06.

In the case of HSGEKPFICKECGKAIGWCSELIR [Y16I], the protein stability index worked out at 2.06.

For the variant HSGEKPFICKECGKAMGWCSELIR [Y16M], the protein stability index is 1.94.

Turning to HSGEKPFICKECGKAHGWCSELIR [Y16H], the protein stability index came to 3.04.

HSGEKPFICKECGKAVGWCSELIR [Y16V]: the protein stability index is 1.54.

On to HSGEKPFICKECGKAQGWCSELIR [Y16Q], for which the protein stability index is 2.33.

HSGEKPFICKECGKATGWCSELIR [Y16T]: the protein stability index was determined as 2.49.

With HSGEKPFICKECGKAYGWCSELIN [R24N], the protein stability index was 2.03.

Turning to HSGEKPFICKECGKAYGWCSELIW [R24W], the protein stability index amounted to 2.09.

On to HSGEKPFICKECGKAYGWCSELIA [R24A], for which the protein stability index amounted to 1.86.

Consider HSGEKPFICKECGKAYGWCSELIE [R24E], for which the protein stability index was determined as 2.33.

Take HSGEKPFICKECGKAYGWCSELIG [R24G]: the protein stability index came to 1.45.

In the case of HSGEKPFICKECGKAYGWCSELIY [R24Y], the protein stability index stood at 1.61.

Turning to HSGEKPFICKECGKAYGWCSELIC [R24C], the protein stability index worked out at 4.05.

In the case of HSGEKPFICKECGKAYGWCSELIQ [R24Q], the protein stability index came to 2.44.

HSGEKPFICKECGKAYGWCSELID [R24D]: the protein stability index amounted to 2.85.

As to HSGEKPFICKECGKAYGWCSELIT [R24T], the protein stability index came out at 2.32.

With HSGEKPFICKECGKAYGWCSELIL [R24L], the protein stability index is 1.71.

In the case of HSGEKPFICKECGKAYGWCSELIH [R24H], the protein stability index was 3.51.

HSGEKPFICKECGKAYGWCSELIK [R24K]: the protein stability index is 2.08.

In the case of HSGEKPFICKECGKAYGWCSELIS [R24S], the protein stability index stood at 2.23.

Take HSGEKPFICKECGKAYGWCSELII [R24I]: the protein stability index was determined as 1.99.

Regarding HSGEKPFICKECGKAYGWCSELIV [R24V], the protein stability index came to 2.02.

HSGEKPFICKECGKAYGWCSELIP [R24P]: the protein stability index is 2.66.

Consider HSGEKPFICKECGKAYGWCSELIF [R24F], for which the protein stability index worked out at 2.23.

As for HSGEKPFICKECGKAYGWCSELIM [R24M], the protein stability index is 1.74.

HSGEKPFICKECGKAYGWCSELLR [I23L]: the protein stability index was 2.31.

With HSGEKPFICKECGKAYGWCSELTR [I23T], the protein stability index came to 1.89.

On to HSGEKPFICKECGKAYGWCSELNR [I23N], for which the protein stability index was determined as 1.97.

For the variant HSGEKPFICKECGKAYGWCSELER [I23E], the protein stability index was 2.24.

As to HSGEKPFICKECGKAYGWCSELRR [I23R], the protein stability index is 2.

Consider HSGEKPFICKECGKAYGWCSELYR [I23Y], for which the protein stability index was 1.82.

For the variant HSGEKPFICKECGKAYGWCSELDR [I23D], the protein stability index is 2.5.

Take HSGEKPFICKECGKAYGWCSELAR [I23A]: the protein stability index was 2.04.

In the case of HSGEKPFICKECGKAYGWCSELQR [I23Q], the protein stability index was 2.58.

For HSGEKPFICKECGKAYGWCSELWR [I23W], the protein stability index amounted to 2.3.

HSGEKPFICKECGKAYGWCSELPR [I23P]: the protein stability index came out at 2.28.

Regarding HSGEKPFICKECGKAYGWCSELCR [I23C], the protein stability index was 3.64.

In the case of HSGEKPFICKECGKAYGWCSELSR [I23S], the protein stability index was 1.78.

For the variant HSGEKPFICKECGKAYGWCSELKR [I23K], the protein stability index came to 2.45.

Take HSGEKPFICKECGKAYGWCSELFR [I23F]: the protein stability index amounted to 1.98.

Turning to HSGEKPFICKECGKAYGWCSELMR [I23M], the protein stability index came to 1.97.

HSGEKPFICKECGKAYGWCSELVR [I23V]: the protein stability index is 1.97.

HSGEKPFICKECGKAYGWCSELHR [I23H]: the protein stability index is 2.71.

As to HSGEKPFICKECGKAYGWCSELGR [I23G], the protein stability index turned out to be 2.09.

Variants of B2 are the subject of another series. The series is described as above. To be noted: c terminus: a fixed tail appended.
QLELTRKLQDLIKDVLRYGEEQLK [H1Q]: the protein stability index stood at 2.8.

With DLELTRKLQDLIKDVLRYGEEQLK [H1D], the protein stability index came to 2.68.

Take RLELTRKLQDLIKDVLRYGEEQLK [H1R]: the protein stability index amounted to 5.3.

With ELELTRKLQDLIKDVLRYGEEQLK [H1E], the protein stability index worked out at 2.81.

As for NLELTRKLQDLIKDVLRYGEEQLK [H1N], the protein stability index was 3.04.

LLELTRKLQDLIKDVLRYGEEQLK [H1L]: the protein stability index is 1.55.

Turning to GLELTRKLQDLIKDVLRYGEEQLK [H1G], the protein stability index turned out to be 2.03.

Consider KLELTRKLQDLIKDVLRYGEEQLK [H1K], for which the protein stability index was 1.46.

On to SLELTRKLQDLIKDVLRYGEEQLK [H1S], for which the protein stability index was determined as 2.96.

In the case of YLELTRKLQDLIKDVLRYGEEQLK [H1Y], the protein stability index worked out at 2.02.

For FLELTRKLQDLIKDVLRYGEEQLK [H1F], the protein stability index is 1.99.

With MLELTRKLQDLIKDVLRYGEEQLK [H1M], the protein stability index amounted to 2.23.

On to TLELTRKLQDLIKDVLRYGEEQLK [H1T], for which the protein stability index was 2.28.

ILELTRKLQDLIKDVLRYGEEQLK [H1I]: the protein stability index is 1.74.

Regarding PLELTRKLQDLIKDVLRYGEEQLK [H1P], the protein stability index is 1.79.

In the case of VLELTRKLQDLIKDVLRYGEEQLK [H1V], the protein stability index stood at 1.31.

Consider WLELTRKLQDLIKDVLRYGEEQLK [H1W], for which the protein stability index is 1.9.

Take HEELTRKLQDLIKDVLRYGEEQLK [L2E]: the protein stability index was 2.63.

Turning to HCELTRKLQDLIKDVLRYGEEQLK [L2C], the protein stability index turned out to be 3.33.

Regarding HGELTRKLQDLIKDVLRYGEEQLK [L2G], the protein stability index came to 3.28.

On to HFELTRKLQDLIKDVLRYGEEQLK [L2F], for which the protein stability index came to 1.95.

For the variant HAELTRKLQDLIKDVLRYGEEQLK [L2A], the protein stability index was 2.42.

In the case of HDELTRKLQDLIKDVLRYGEEQLK [L2D], the protein stability index came to 2.92.
